Test results: the supplement of paper PMC11246515
± gives the standard deviation of the averaged measurements.

Experiment: total protein half-life in vivo (active degradation + dilution); higher = more stable protein
[1] = E. coli NCM3722 delta-clpP delta-lon delta-hslV, growth: N-lim chemostat, doubling time 6 h
[2] = E. coli NCM3722 delta-clpP, growth: N-lim chemostat, doubling time 6 h
[3] = E. coli NCM3722 delta-hslV, growth: N-lim chemostat, doubling time 6 h
[4] = E. coli NCM3722 delta-lon, growth: N-lim chemostat, doubling time 6 h
[5] = E. coli NCM3722 delta-smpB, growth: N-lim chemostat, doubling time 6 h
[6] = wild type E. coli NCM3722, growth: C-lim chemostat, doubling time 3 h
[7] = wild type E. coli NCM3722, growth: C-lim chemostat, doubling time 6 h
[8] = wild type E. coli NCM3722, growth: C-lim chemostat, doubling time 12 h
[9] = wild type E. coli NCM3722, growth: N-lim chemostat, doubling time 6 h
[10] = wild type E. coli NCM3722, growth: N-lim chemostat, doubling time 12 h
[11] = wild type E. coli NCM3722, growth: P-lim chemostat, doubling time 6 h
[12] = wild type E. coli NCM3722, growth: P-lim chemostat, doubling time 12 h

MATDSTQCVKKSRGRPKVFDRDAALDKAMKLFWQHGYEATSLADLVEATGAKAPTLYAEFTNKEGLFRAVLDRYIDRFAAKHEAQLFCEEKSVESALADYFAAIANCFTSKDTPAGCFMINNCTTLSPDSGDIANTLKSRHAMQERTLQQFLCQRQARGEIPPHCDVTHLAEFLNCIIQGMSISAREGASLEKLMQIAGTTLRLWPELVK
total protein half-life in vivo [1]: 5.38 ± 0.14 h
total protein half-life in vivo [2]: 3.65 ± 0.34 h
total protein half-life in vivo [3]: 1.46 ± 0.015 h
total protein half-life in vivo [4]: 2.04 ± 0.17 h
total protein half-life in vivo [5]: 1.57 ± 0.097 h
total protein half-life in vivo [6]: 1.69 ± 0.081 h
total protein half-life in vivo [7]: 2.99 ± 0.34 h
total protein half-life in vivo [8]: 4.6 ± 0.59 h
total protein half-life in vivo [9]: 1.78 ± 0.021 h
total protein half-life in vivo [10]: 2.32 ± 0.54 h
total protein half-life in vivo [11]: 2.49 ± 0.15 h
total protein half-life in vivo [12]: 3.73 ± 1.1 h

MPVRASIEPLTWENAFFGVNSAIVRITSEAPLLTPDALAPWSRVQAKIAASNTGELDALQQLGFSLVEGEVDLALPVNNASDSGAVVAQETDIPALRQLASAAFAQSRFRAPWYAPDASSRFYAQWIENAVRGTFDHQCLILRAASGDIRGYVSLRELNATDARIGLLAGRGAGAELMQTALNWAYARGKTTLRVATQMGNTAALKRYIQSGANVESTAYWLYR
total protein half-life in vivo [1]: 5.12 ± 0.074 h
total protein half-life in vivo [2]: 5.45 ± 0.15 h
total protein half-life in vivo [3]: 5.034 ± 0.029 h
total protein half-life in vivo [4]: 5.27 ± 0.26 h
total protein half-life in vivo [5]: 4.7 ± 0.44 h
total protein half-life in vivo [6]: 3.03 ± 0.15 h
total protein half-life in vivo [7]: 5.9 ± 0.062 h
total protein half-life in vivo [8]: 11.5 h
total protein half-life in vivo [9]: 5.052 ± 0.012 h
total protein half-life in vivo [10]: 9.31 ± 0.14 h
total protein half-life in vivo [11]: 5.73 ± 0.87 h
total protein half-life in vivo [12]: 12.6 ± 0.52 h

MDLIYFLIDFILHIDVHLAELVAEYGVWVYAILFLILFCETGLVVTPFLPGDSLLFVAGALASLETNDLNVHMMVVLMLIAAIVGDAVNYTIGRLFGEKLFSNPNSKIFRRSYLDKTHQFYEKHGGKTIILARFVPIVRTFAPFVAGMGHMSYRHFAAYNVIGALLWVLLFTYAGYFFGTIPMVQDNLKLLIVGIIVVSILPGVIEIIRHKRAAARAAK [P0ABP6]
total protein half-life in vivo [1]: 3.68 ± 0.076 h
total protein half-life in vivo [2]: 3.87 h
total protein half-life in vivo [3]: 3.74 h
total protein half-life in vivo [4]: 3.148 ± 0.016 h
total protein half-life in vivo [5]: 4.71 ± 0.57 h
total protein half-life in vivo [6]: 2.65 ± 0.21 h
total protein half-life in vivo [7]: 5.03 ± 0.88 h
total protein half-life in vivo [8]: 9.21 ± 3.2 h
total protein half-life in vivo [9]: 3.7 ± 0.13 h
total protein half-life in vivo [10]: 6.2 ± 0.26 h
total protein half-life in vivo [12]: 7.57 ± 1.5 h

MTIAIVIGTHGWAAEQLLKTAEMLLGEQENVGWIDFVPGENAETLIEKYNAQLAKLDTTKGVLFLVDTWGGSPFNAASRIVVDKEHYEVIAGVNIPMLVETLMARDDDPSFDELVALAVETGREGVKALKAKPVEKAAPAPAAAAPKAAPTPAKPMGPNDYMVIGLARIDDRLIHGQVATRWTKETNVSRIIVVSDEVAADTVRKTLLTQVAPPGVTAHVVDVAKMIRVYNNPKYAGERVMLLFTNPTDVERLVEGGVKITSVNVGGMAFRQGKTQVNNAVSVDEKDIEAFKKLNARGIELEVRKVSTDPKLKMMDLISKIDK
total protein half-life in vivo [1]: 6.3 ± 0.43 h
total protein half-life in vivo [2]: 6.46 ± 1.2 h
total protein half-life in vivo [4]: 6.12 ± 0.73 h
total protein half-life in vivo [5]: 5.94 ± 0.051 h
total protein half-life in vivo [6]: 3.14 ± 0.049 h
total protein half-life in vivo [7]: 6.91 ± 0.14 h
total protein half-life in vivo [8]: 13 ± 0.89 h
total protein half-life in vivo [9]: 5.95 ± 0.48 h
total protein half-life in vivo [10]: 12 ± 0.24 h
total protein half-life in vivo [11]: 6.111 ± 0.044 h
total protein half-life in vivo [12]: 14.3 ± 0.52 h

MQLKRVAEAKLPTPWGDFLMVGFEELATGHDHVALVYGDISGHTPVLARVHSECLTGDALFSLRCDCGFQLEAALTQIAEEGRGILLYHRQEGRNIGLLNKIRAYALQDQGYDTVEANHQLGFAADERDFTLCADMFKLLGVNEVRLLTNNPKKVEILTEAGINIVERVPLIVGRNPNNEHYLDTKAEKMGHLLNK [P0A7I7]
total protein half-life in vivo [1]: 4.5 ± 0.35 h
total protein half-life in vivo [2]: 4.52 ± 0.67 h
total protein half-life in vivo [3]: 4.48 ± 0.35 h
total protein half-life in vivo [4]: 4.54 ± 0.19 h
total protein half-life in vivo [5]: 4.54 ± 0.23 h
total protein half-life in vivo [6]: 2.92 ± 0.095 h
total protein half-life in vivo [7]: 5.1 ± 0.3 h
total protein half-life in vivo [8]: 8.93 ± 0.54 h
total protein half-life in vivo [9]: 4.27 ± 0.17 h
total protein half-life in vivo [10]: 6.85 ± 0.2 h
total protein half-life in vivo [11]: 6.08 ± 0.73 h
total protein half-life in vivo [12]: 10.3 ± 0.8 h

MENKSARAKVQAFGGFLTAMVIPNIGAFIAWGFITALFIPTGWLPNEHFAKIVGPMITYLLPVMIGSTGGHLVGGKRGAVMGGIGTIGVIVGAEIPMFLGSMIMGPLGGLVIKYVDKALEKRIPAGFEMVINNFSLGIAGMLLCLLGFEVIGPAVLIANTFVKECIEALVHAGYLPLLSVINEPAKVLFLNNAIDQGVYYPLGMQQASVNGKSIFFMVASNPGPGLGLLLAFTLFGKGMSKRSAPGAMIIHFLGGIHELYFPYVLMKPLTIIAMIAGGMSGTWMFNLLDGGLVAGPSPGSIFAYLALTPKGSFLATIAGVTVGTLVSFAITSLILKMEKTVETESEDEFAQSANAVKAMKQEGAFSLSRVKRIAFVCDAGMGSSAMGATTFRKRLEKAGLAIEVKHYAIENVPADADIVVTHASLEGRVKRVTDKPLILINNYIGDPKLDTLFNQLTAEHKH
total protein half-life in vivo [6]: 2.08 h
total protein half-life in vivo [7]: 3.65 h
total protein half-life in vivo [8]: 8.89 h

MIYIGLPQWSHPKWVRLGITSLEEYARHFNCVEGNTTLYALPKPEVVLRWREQTTDDFRFCFKFPATISHQAALRHCDDLVTEFLTRMSPLAPRIGQYWLQLPATFGPRELPALWHFLDSLPGEFNYGVEVRHPQFFAKGEEEQTLNRGLHQRGVNRVILDSRPVHAARPHSEAIRDAQRKKPKVPVHAVLTATNPLIRFIGSDDMTQNRELFQVWLQKLAQWHQTTTPYLFLHTPDIAQAPELVHTLWEDLRKTLPEIGAVPAIPQQSSLF
total protein half-life in vivo [1]: 4.97 ± 2.1 h
total protein half-life in vivo [2]: 3.55 ± 0.26 h
total protein half-life in vivo [3]: 2.76 ± 0.11 h
total protein half-life in vivo [4]: 3.25 ± 0.55 h
total protein half-life in vivo [5]: 2.97 ± 0.13 h
total protein half-life in vivo [7]: 4.28 h
total protein half-life in vivo [8]: 8.14 ± 0.79 h
total protein half-life in vivo [9]: 3.16 ± 0.033 h
total protein half-life in vivo [10]: 5.52 h
total protein half-life in vivo [11]: 5.33 ± 0.11 h
total protein half-life in vivo [12]: 11.5 ± 0.46 h

MKPLSSPLQQYWQTVVERLPEPLAEESLSAQAKSVLTFSDFVQDSVIAHPEWLTELESQPPQADEWQHYAAWLQEALCNVSDEAGLMRELRLFRRRIMVRIAWAQTLALVTEESILQQLSYLAETLIVAARDWLYDACCREWGTPCNAQGEAQPLLILGMGKLGGGELNFSSDIDLIFAWPEHGCTQGGRRELDNAQFFTRMGQRLIKVLDQPTQDGFVYRVDMRLRPFGESGPLVLSFAALEDYYQEQGRDWERYAMVKARIMGDSEGVYANELRAMLRPFVFRRYIDFSVIQSLRNMKGMIAREVRRRGLTDNIKLGAGGIREIEFIVQVFQLIRGGREPSLQSRSLLPTLSAIAELHLLSENDAEQLRVAYLFLRRLENLLQSINDEQTQTLPSDELNRARLAWAMDFADWPQLTGALTAHMTNVRRVFNELIGDDESETQEESLSEQWRELWQDALQEDDTTPVLAHLSEDDRKQVLTLIADFRKELDKRTIGPRGRQVLDHLMPHLLSDVCAREDAAVTLSRITALLVGIVTRTTYLELLSEFPAALKHLISLCAASPMIASQLARYPLLLDELLDPNTLYQPTATDAYRDELRQYLLRVPEDDEEQQLEALRQFKQAQLLRIAAADIAGTLPVMKVSDHLTWLAEAMIDAVVQQAWVQMVARYGKPNHLNEREGRGFAVVGYGKLGGWELGYSSDLDLIFLHDCPMDAMTDGEREIDGRQFYLRLAQRIMHLFSTRTSSGILYEVDARLRPSGAAGMLVTSAEAFADYQKNEAWTWEHQALVRARVVYGDPQLTAHFDAVRREIMTLPREGKTLQTEVREMREKMRAHLGNKHRDRFDIKADEGGITDIEFITQYLVLRYAHEKPKLTRWSDNVRILELLAQNDIMEEQEAMALTRAYTTLRDELHHLALQELPGHVSEDCFTAERELVRASWQKWLVEE
total protein half-life in vivo [1]: 4.99 ± 0.16 h
total protein half-life in vivo [2]: 4.75 ± 0.75 h
total protein half-life in vivo [3]: 4.215 ± 0.0047 h
total protein half-life in vivo [4]: 5.2 ± 0.75 h
total protein half-life in vivo [5]: 4.64 ± 0.27 h
total protein half-life in vivo [6]: 3.414 ± 0.027 h
total protein half-life in vivo [7]: 6.65 ± 1.2 h
total protein half-life in vivo [8]: 12.9 ± 0.85 h
total protein half-life in vivo [9]: 4.22 ± 0.24 h
total protein half-life in vivo [10]: 7.85 ± 0.1 h
total protein half-life in vivo [11]: 6.33 ± 0.28 h
total protein half-life in vivo [12]: 13.3 ± 1.3 h

MNAIISPDYYYVLTVAGQSNAMAYGEGLPLPDREDAPHPRIKQLARFAHTHPGGPPCHFNDIIPLTHCPHDVQDMQGYHHPLATNHQTQYGTVGQALHIARKLLPFIPDNAGILIVPCCRGGSAFTAGSEGTYSERHGASHDACRWGTDTPLYQDLVSRTRAALAKNPQNKFLGACWMQGEFDLMTSDYASHPQHFNHMVEAFRRDLKQYHSQLNNITDAPWFCGDTTWYWKENFPHSYEAIYGNYQNNVLANIIFVDFQQQGERGLTNAPDEDPDDLSTGYYGSAYRSPENWTTALRSSHFSTAARRGIISDRFVEAILQFWRER
total protein half-life in vivo [1]: 5.07 ± 0.92 h
total protein half-life in vivo [2]: 3.59 ± 0.15 h
total protein half-life in vivo [3]: 3.413 ± 0.026 h
total protein half-life in vivo [5]: 3.46 ± 0.15 h
total protein half-life in vivo [6]: 3.16 h
total protein half-life in vivo [8]: 8.77 ± 0.83 h
total protein half-life in vivo [9]: 3.38 h
total protein half-life in vivo [11]: 5.15 ± 0.32 h
total protein half-life in vivo [12]: 13.2 h

MNLKLQLKILSFLQFCLWGSWLTTLGSYMFVTLKFDGASIGAVYSSLGIAAVFMPALLGIVADKWLSAKWVYAICHTIGAITLFMAAQVTTPEAMFLVILINSFAYMPTLGLINTISYYRLQNAGMDIVTDFPPIRIWGTIGFIMAMWVVSLSGFELSHMQLYIGAALSAILVLFTLTLPHIPVAKQQANQSWTTLLGLDAFALFKNKRMAIFFIFSMLLGAELQITNMFGNTFLHSFDKDPMFASSFIVQHASIIMSISQISETLFILTIPFFLSRYGIKNVMMISIVAWILRFALFAYGDPTPFGTVLLVLSMIVYGCAFDFFNISGSVFVEKEVSPAIRASAQGMFLMMTNGFGCILGGIVSGKVVEMYTQNGITDWQTVWLIFAGYSVVLAFAFMAMFKYKHVRVPTGTQTVSH [P0AFF4]
total protein half-life in vivo [3]: > 8 h
total protein half-life in vivo [6]: 1.79 h
total protein half-life in vivo [7]: 6.63 h
total protein half-life in vivo [8]: 10.8 ± 2.5 h
total protein half-life in vivo [10]: 4.5 h

MDFPQRVNGWALYAHPCFQETYDALVAEVETLKGKDPENYQRKAATKLLAVVHKVIEEHITVNPSSPAFRHGKSLGSGKNKDWSRVKFGAGRYRLFFRYSEKEKVIILGWMNDENTLRTYGKKTDAYTVFSKMLKRGHPPADWETLTRETEETH
total protein half-life in vivo [2]: 6.54 h
total protein half-life in vivo [3]: 5.12 h
total protein half-life in vivo [4]: 7.11 ± 0.75 h
total protein half-life in vivo [5]: 5.58 h
total protein half-life in vivo [6]: 3.3 h
total protein half-life in vivo [7]: > 8 h
total protein half-life in vivo [8]: 10.2 h
total protein half-life in vivo [9]: 6.09 ± 0.47 h
total protein half-life in vivo [10]: 12.2 h
total protein half-life in vivo [11]: 5.56 ± 0.21 h
total protein half-life in vivo [12]: 15.6 h
